Substitutions are numbered along the chain they refer to. Blank lines part the entries; values can stand above or below the molecule they belong to.
Legend:
AP-MAG = experiment: Binding of AP-MAG to COS-7 cells expressing NgR mutants; set-up: key: ++: WT level; +: weaker than wild type; trace binding; −: no binding; conditions: AP-MAG 30 nM; level of binding compared to wild type NgR
Method: FIG. 4A. […] Binding of AP or AP fused NgR ligands to COS-7 cells expressing different NgR mutants as indicated. The concentrations of ligands applied were: AP, 30 nM; AP-Ng66, 5 nM; AP-Ng33, 10 nM; AP-B4C, 10 nM; AP-B4C66, 0.5 nM; AP-Lingo-1, 10 nM; AP-OMGP, 10 nM; AP-MAG, 30 nM. These concentrations are close to the binding Kd of these proteins to NgR so that any […] is reflected linearly in staining.
FIG. 4B. AP binding of NgR ligands to NgR mutants expressed as percentage of wild type NgR. AP after incubation with AP fused ligands, AP bound to COS-7 cells expressing NgR or NgR mutants were stained and measured.
To better define how multiple ligands bind to the NgR protein, we examined a series of Ala-substituted NgR for ligand binding activity. NgR mutagenesis was done using the Quick Change Multisite Directed Mutagenesis Kit (Stratagene catalog #200514). Human NgR1 was used as a template. Ala substitutions were generated for each of the charged residues predicted to be solvent accessible at the surface of the ligand binding domain of NgR (Barton, W. A., et al., Embo J. 22:3291-3302 (2003); He, X. L., et al., Neuron 38:177-185 (2003)). We generated mutants in which 1-8 surface residues localized within 5 A of one another were Ala-substituted. Because of the coiling nature of the LRR structure, as residues juxtaposed on the protein surface are commonly separated by approximately 25 residues in the primary structure. In addition to mutations in specific charged surface patches, other mutations were targeted to glycosylation sites and to regions predicted to be involved in ligand binding based on the NgR structure (Barton, W. A., et al., Embo J. 22:3291-3302 (2003); He, X. L., et al., Neuron 38:177-185 (2003)). In addition, a variant corresponding to a human polymorphism was examined (D259N). None of the mutations altered the Leu residues that define the LRR structure itself or the Cys residues critical in the amino and carboxyl terminal capping domains. The vast majority of such Ala surface substitution mutants were expressed as immunoreactive polypeptides with a molecular weight and an expression level indistinguishable from wild type NgR (FIG. 4C and data not shown).
This collection of 74 individual NgR mutants was interrogated for AP-Nogo-66, AP-Amino-Nogo-B4C, AP-MAG, AP-OMgp, and AP-Lingo-1 binding. AP-Nogo66, AP-MAG, AP-OMGP and AP-Lingo-1 constructs are described elsewhere (Fournier, A. E., et al., Nature 409:341-346 (2001); Liu, B. P., et al., Science 297:1190-1193 (2002); Mi, S., et al., Nat. Neurosci. 7:221-228 (2004); Wang, K. C., et al., Nature 417:941-944 (2002b)). The properties of the NgR mutants fell into one of three major categories (Table II and FIG. 5). A number of Ala substituted NgR polypeptides bound all of the ligands at wild type levels. […] In addition, a significant extent of the concave surface is dispensable for ligand binding.
Binding of Alanine substituted NgR mutants to NgR ligands were compared to wild type NgR and the levels of binding were categorized as ++ (WT level), + (weaker than wild type), tr (trace binding), − (no binding), N/A (not determined). NgR mutant proteins were also subjected to SDS-PAGE and probed by anti-NgR antibodies. Mutants with expression level similar to WT NgR were labeled as “y”.

NgR ligands = experiment: Binding of alanine substituted NgR mutants to NgR ligands, summary categories; conditions: AP-Nogo66, AP-B4C, AP-B4C66, AP-Lingo-1, AP-OMgp and AP-MAG; compared to wild type NgR
Summary of the method: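 Human NgR1 template; 74 mutants with 1-8 solvent-exposed charged surface residues (within 5 Å) Ala-substituted, plus glycosylation-site mutants and D259N polymorphism. Mutants tested for binding of AP-tagged Nogo66, Amino-Nogo-B4C, B4C66, MAG, OMgp and Lingo-1; each classed as losing all, keeping all, or selective ligand binding.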

AP-B4C66 = experiment: Binding of AP-B4C66 to COS-7 cells expressing NgR mutants; set-up: key: ++: WT level; +: weaker than wild type; trace binding; −: no binding; conditions: AP-B4C66 0.5 nM; level of binding compared to wild type NgR
Summary of the method: (§1)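 COS-7 cells expressing Ala-substituted human NgR1 mutants incubated with AP-fused ligands at near-Kd levels (AP-Ng66 5 nM, AP-B4C66 0.5 nM, AP-Lingo-1 10 nM, AP-OMGP 10 nM). Bound AP stained and measured as % of wild-type NgR; graded ++/+/tr/−.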

AP-Nogo66 = target: T1, AP-Nogo66 (Homo sapiens, UniProt Q9NQC3); experiment: Binding of AP-Nogo66 to COS-7 cells expressing NgR mutants; set-up: key: ++: WT level; +: weaker than wild type; trace binding; −: no binding; conditions: AP-Ng66 5 nM; level of binding compared to wild type NgR
T1 construct: made in house; NgR mutants: COS-7
T1 sequence (Q9NQC3 1055-1120 limits assumed): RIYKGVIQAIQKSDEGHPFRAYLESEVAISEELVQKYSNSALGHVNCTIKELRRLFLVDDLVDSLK
Summary of the method: as §1

AP-OMgp = experiment: Binding of AP-OMgp to COS-7 cells expressing NgR mutants; set-up: key: ++: WT level; +: weaker than wild type; trace binding; −: no binding; conditions: AP-OMGP 10 nM; level of binding compared to wild type NgR
Summary of the method: as §1

AP-Lingo-1 = target: T2, AP-Lingo-1 (Homo sapiens, UniProt Q96FE5); experiment: Binding of AP-Lingo-1 to COS-7 cells expressing NgR mutants; set-up: key: ++: WT level; +: weaker than wild type; trace binding; −: no binding; conditions: AP-Lingo-1 10 nM; level of binding compared to wild type NgR
T2 construct: made in house; NgR mutants: COS-7
T2 sequence (Q96FE5 40-538 limits assumed): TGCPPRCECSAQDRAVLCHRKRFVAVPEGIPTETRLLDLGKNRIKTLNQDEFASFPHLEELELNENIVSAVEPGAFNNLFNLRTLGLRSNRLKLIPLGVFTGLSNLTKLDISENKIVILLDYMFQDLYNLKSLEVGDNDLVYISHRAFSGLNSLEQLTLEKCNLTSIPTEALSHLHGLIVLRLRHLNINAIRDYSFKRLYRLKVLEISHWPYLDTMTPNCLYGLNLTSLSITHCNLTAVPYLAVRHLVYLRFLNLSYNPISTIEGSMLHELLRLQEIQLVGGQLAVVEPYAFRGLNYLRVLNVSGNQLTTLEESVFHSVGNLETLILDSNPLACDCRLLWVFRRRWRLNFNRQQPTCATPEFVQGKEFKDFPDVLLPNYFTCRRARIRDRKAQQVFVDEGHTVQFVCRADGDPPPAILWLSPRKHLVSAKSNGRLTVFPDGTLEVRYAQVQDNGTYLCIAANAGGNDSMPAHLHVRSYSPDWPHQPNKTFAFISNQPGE
Summary of the method: as §1

AP-B4C = target: T3, AP-B4C (Homo sapiens, UniProt Q9NQC3); experiment: Binding of AP-B4C to COS-7 cells expressing NgR mutants; set-up: key: ++: WT level; +: weaker than wild type; trace binding; −: no binding; conditions: AP-B4C 10 nM; level of binding compared to wild type NgR
T3 construct: a.a; 950-1018 (AmNg B4C); made in house; host or cells: AP ligand: HEK293T conditioned medium; NgR mutants: COS-7
T3 sequence (Q9NQC3 950-1018): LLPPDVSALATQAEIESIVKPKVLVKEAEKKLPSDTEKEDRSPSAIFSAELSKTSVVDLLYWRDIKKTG

- ligand binding category of NgR mutant (Table II) (NgR ligands): Differential binding
- Ng66 (AP-Nogo66): +
- Lingo-1 (AP-Lingo-1): +
- B4C (AP-B4C): ++
B1: 95, 97: human NgR1 mutant, listed residues mutated to alanine (protein)
chain: CPGACVCYNEPKVTTSCPQQGLQAVPVGIPAASQRIFLHGNRISHVPAASFRACRNLTILWLHSNVLAAIAAAAFTGLALLEQLDLSDNAQLRSVDPATFHGLGRLHTLHLDRCGLQELGPGLFRGLAALQYLYLQDNALQALPDDTFRDLGNLTHLFLHGNRISSVPERAFRGLHSLDRLLLHQNRVAHVHPHAFRDLGRLMTLYLFANNLSALPTEALAPLRALQYLRLNDNPWVCDCRARPLWAWLQKFRGSSSEVPCSLPQRLAGRDLKRLAANDLQGCAVATGPYHPIWTGRATDEEPLGLPKCCQPDAADKASVLEPGRPASAGNALKGRVPPGDSPPGNGSGPRHINDSPFGTLPGSAEPPLTAVRPEGSEPPGFPTSGPRRRPGCSRKNRTRSHCRLGQAGSGGGGTGDSEGSGALPSLTCSLTPLGLALVLWTVLGPC
- MAG (AP-MAG): tr
- B4C-66 (AP-B4C66): +
- OMgp (AP-OMgp): tr

- ligand binding category of NgR mutant (Table II) (NgR ligands): Differential binding
- Ng66 (AP-Nogo66): +
- Lingo-1 (AP-Lingo-1): −
- B4C (AP-B4C): +
B2: 108, 131: human NgR1 mutant, listed residues mutated to alanine (protein)
chain: B1 chain with A69R, A71D, E82A, R105A
- MAG (AP-MAG): tr
- B4C-66 (AP-B4C66): +
- OMgp (AP-OMgp): +
